In PMC6586891, “On the molecular and cellular effects of omeprazole to further support its effectiveness as an antigiardial drug” (Scientific Reports, 2019):

Substrate: O=CC(O)COP(=O)(O)O
Test: Michaelis-Menten kinetics of purified enzyme (Km), coupled alpha-GDH/NADH assay
Type: biochemical, Giardia duodenalis

B1: Giardia lamblia triosephosphate isomerase (GlTIM WT) (Giardia duodenalis) (protein)
chain: MPARRPFIGGNFKCNGSLDFIKSHVAAIAAHKIPDSVDVVIAPSAVHLSTAIAANTSKQLRIAAQNVYLEGNGAWTGETSVEMLQDMGLKHVIVGHSERRRIMGETDEQSAKKAKRALEKGMTVIFCVGETLDERKANRTMEVNIAQLEALGKELGESKMLWKEVVIAYEPVWSIGTGVVATPEQAEEVHVGLRKWFAEKVCAEGAQHIRIIYGGSANGSNCEKLGQCPNIDGFLVGGASLKPEFMTMIDILTKTRT
notes: recombinant His-tag/TEV GlTIM WT
**Q.** B1 was tested. Which Km did it give?
**A.** 780 ± 60 µM

**Q.** And the kcat?
**A.** 7670 ± 267 s⁻¹

**Q.** What about the kcat/Km of the same protein?
**A.** 9.83e+06 M⁻¹ s⁻¹
